# Reference: US20210247395A1
# Target: NP binding epitope peptide of human Influenza B, residues 31-43 of Nucleoprotein (…) (Influenza B virus (strain B/Lee/1940))
# Assay: ELISA on overlapping peptides of NP (strain B/Lee/1940)
row,Substance,OD492 nm
1,"Acris mAb 3IF18-InB12, clone InB12 (murine anti-Influenza B nucleoprotein monoclonal antibody)",> 0.4 OD492 nm
2,"GenWay mAb GWB-T00595, clone B265M (murine anti-Influenza B nucleoprotein monoclonal antibody)",> 0.4 OD492 nm
